These results are taken from article PMC5736309.

This assay deals with Y1F Rpb1 (Rpb1 with a CTD of 26 FSPTSPS repeats) (S. cerevisiae). Briefly: co-IP.

B1: 3HA-tagged Nrd1 (natural protein)
chain: MQQDDDFQNFVATLESFKDLKSGISGSRIKKLTTYALDHIDIESKIISLIIDYSRLCPDSHKLGSLYIIDSIGRAYLDETRSNSNSSSNKPGTCAHAINTLGEVIQELLSDAIAKSNQDHKEKIRMLLDIWDRSGLFQKSYLNAIRSKCFAMDISNNTANTASQQLSLDPKQRSKQILSNLKKSPPLNLNISLPTDLTSTDPAKQQAALFQVIAALQKHFKTLPSHTSVGTVAPPQAHTITEYGSRRERERERERYNSRRNRSRSPPAPFSQPSTGRKDRYPSVAQDQYSIGAPNTTFGTNNHHLYPDELNVSNNPHYRPKPVSYDSTLPPDHIKVYSRTLFIGGVPLNMKEWDLANVLKPFAEVQSVILNNSRKHAFVKVYSRHEAENVLQNFNKDGALPLRTRWGVGFGPRDCCDYQHGYSIIPMHRLTDADKKWSVSAQWGGTSGQPLVTGIVFEEPDIIVGEGVSSKAISQKMPTDSGRNGPRSGKPNKSGSISSISPVPYGNAPLASPPPQQYVQPMMQQPYGYAPNQPLPSQGPAAAAPPVPQQQFDPTAQLNSLMNMLNQQQQQQQQS
For the molecule B1, the fold change in binding against WT Rpb1 came out at 7.3 fold.
